Source: patent US20090110686A1
Residue numbers refer to the chain shown, from its start.

B1: anti-CCR5 antibody with heavy chain variable domain SEQ ID NO: 6 and light chain variable domain SEQ ID NO: 9, mutated IgG1 (IgG1v2) constant region (antibody, name in EU numbering, V domains shown)
VH: QVQLQESGPGLVKPSQSLSITCTVSGFPLGAFGVHWVRQSPGKGPEWLGVIWKGGNTDYNAAFKSRLRITKDNSKSQVFFRMNSLQTDDTATYYCAKVNLADAMDYWGQGTTVTVSS
VL: DIQMTQSPASLSASVGETVTITCRASGNAHGYLAWYQQKPGKAPKLLIYNTKTLAEGVPSRFSGSGSGTQFSLKINSAQPEDFGNYYCQHHYDLPRTFGGGTKVEIKR
B2: anti-CCR5 antibody with heavy chain variable domain SEQ ID NO: 7 and light chain variable domain SEQ ID NO: 9, mutated IgG1 (IgG1v2) constant region (antibody, name in EU numbering, V domains shown)
VH: B1 VH with P45L
VL: B1 VL
B3: anti-CCR5 antibody with heavy chain variable domain SEQ ID NO: 7 and light chain variable domain SEQ ID NO: 10, mutated IgG1 (IgG1v2) constant region (antibody, name in EU numbering, V domains shown)
VH: B1 VH with P45L
VL: B1 VL with I48V
B4: anti-CCR5 antibody with heavy chain variable domain SEQ ID NO: 8 and light chain variable domain SEQ ID NO: 9, mutated IgG1 (IgG1v2) constant region (antibody, name in EU numbering, V domains shown)
VH: B1 VH with P45L, T92I
VL: B1 VL
B5: anti-CCR5 antibody with heavy chain variable domain SEQ ID NO: 8 and light chain variable domain SEQ ID NO: 10, mutated IgG1 (IgG1v2) constant region (antibody, name in EU numbering, V domains shown)
VH: B1 VH with P45L, T92I
VL: B1 VL with I48V
B6: anti-CCR5 antibody with heavy chain variable domain SEQ ID NO: 6 and light chain variable domain SEQ ID NO: 10, mutated IgG1 (IgG1v2) constant region (antibody, name in EU numbering, V domains shown)
VH: B1 VH
VL: B1 VL with I48V

Each binder was assayed against human CC chemokine receptor CCR5 (human) (UniProt P51681) (assay: cell-based or functional assay).

In order of rising IC50, cell-cell fusion assay (gp160-expressing HeLa cells with CEM.NKR-CCR5-Luc cells, luciferase):
1. B2  0.046 µg/mL
2. B5  0.076 µg/mL
3. B1  0.108 µg/mL
4. B4  0.132 µg/mL
5. B3  0.152 µg/mL
6. B6  0.399 µg/mL
